T1: EsCas13d, nuclease-dead (Eubacterium siraeum, UniProt B0MS50, R295A;H300A;R849A;H854A)
T1 sequence: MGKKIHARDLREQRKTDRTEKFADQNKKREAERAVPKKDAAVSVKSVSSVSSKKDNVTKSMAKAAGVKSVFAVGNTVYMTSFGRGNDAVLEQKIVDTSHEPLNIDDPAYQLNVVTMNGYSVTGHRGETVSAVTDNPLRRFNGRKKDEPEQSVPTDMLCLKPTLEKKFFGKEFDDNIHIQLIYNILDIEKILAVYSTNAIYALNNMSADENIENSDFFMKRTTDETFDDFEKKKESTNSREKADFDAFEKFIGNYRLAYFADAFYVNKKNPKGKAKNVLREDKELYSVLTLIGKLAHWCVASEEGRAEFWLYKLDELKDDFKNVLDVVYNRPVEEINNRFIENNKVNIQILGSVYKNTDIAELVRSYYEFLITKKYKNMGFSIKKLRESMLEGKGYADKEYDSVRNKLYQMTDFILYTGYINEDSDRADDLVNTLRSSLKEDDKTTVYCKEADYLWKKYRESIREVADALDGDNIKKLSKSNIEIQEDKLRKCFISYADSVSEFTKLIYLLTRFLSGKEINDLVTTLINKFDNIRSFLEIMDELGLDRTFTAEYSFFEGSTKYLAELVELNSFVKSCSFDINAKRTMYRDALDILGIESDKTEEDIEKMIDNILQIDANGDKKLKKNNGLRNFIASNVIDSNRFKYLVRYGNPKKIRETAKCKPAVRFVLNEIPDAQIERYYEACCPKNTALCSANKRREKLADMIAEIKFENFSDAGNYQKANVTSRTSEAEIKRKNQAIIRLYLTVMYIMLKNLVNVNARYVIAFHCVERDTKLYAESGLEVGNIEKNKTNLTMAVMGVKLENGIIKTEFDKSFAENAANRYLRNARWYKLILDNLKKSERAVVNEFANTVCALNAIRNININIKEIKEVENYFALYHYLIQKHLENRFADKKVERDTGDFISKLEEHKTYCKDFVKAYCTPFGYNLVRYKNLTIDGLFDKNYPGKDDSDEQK

B1: target 3 A12U,A18G (mixed)
RNA 1: CACCCGUGCAAAAUUGCAGGGGUCUAAAACGACCUGAAUAUUUCAGAUCAAA
RNA 2: GGGAAUGGAUCCACAUCUACGAAUUCGUUUUUGGUCUGAUAUAUUCAGGUCUGCAGAUCGGAAGAGCACACGU
B2: target 3 insC 3' of 10,insC 3' of 3 (mixed)
RNA 1: CACCCGUGCAAAAUUGCAGGGGUCUAAAACGACCUGAAUAUUUCAGAUCAAA
RNA 2: GGGAAUGGAUCCACAUCUACGAAUUCGUUUUUGAUCUGAAAUCAUUCAGGCUCUGCAGAUCGGAAGAGCACACGU
B3: target 3 insU 3' of 22,insU 3' of 16 (mixed)
RNA 1: CACCCGUGCAAAAUUGCAGGGGUCUAAAACGACCUGAAUAUUUCAGAUCAAA
RNA 2: GGGAAUGGAUCCACAUCUACGAAUUCGUUUUUUGAUCUUGAAAUAUUCAGGUCUGCAGAUCGGAAGAGCACACGU
B4: target 3 insG 3' of 11,insC 3' of 3 (mixed)
RNA 1: CACCCGUGCAAAAUUGCAGGGGUCUAAAACGACCUGAAUAUUUCAGAUCAAA
RNA 2: GGGAAUGGAUCCACAUCUACGAAUUCGUUUUUGAUCUGAAAGUAUUCAGGCUCUGCAGAUCGGAAGAGCACACGU
B5: target 3 A9G,U22G (mixed)
RNA 1: CACCCGUGCAAAAUUGCAGGGGUCUAAAACGACCUGAAUAUUUCAGAUCAAA
RNA 2: GGGAAUGGAUCCACAUCUACGAAUUCGUUGUUGAUCUGAAAUGUUCAGGUCUGCAGAUCGGAAGAGCACACGU
B6: target 3 insA 3' of 21,insA 3' of 6 (mixed)
RNA 1: CACCCGUGCAAAAUUGCAGGGGUCUAAAACGACCUGAAUAUUUCAGAUCAAA
RNA 2: GGGAAUGGAUCCACAUCUACGAAUUCGUUUUAUGAUCUGAAAUAUUCAAGGUCUGCAGAUCGGAAGAGCACACGU
B7: target 3 G3U,A5G (mixed)
RNA 1: CACCCGUGCAAAAUUGCAGGGGUCUAAAACGACCUGAAUAUUUCAGAUCAAA
RNA 2: GGGAAUGGAUCCACAUCUACGAAUUCGUUUUUGAUCUGAAAUAUUCGGUUCUGCAGAUCGGAAGAGCACACGU
B8: target 3 U7A,A13G (mixed)
RNA 1: CACCCGUGCAAAAUUGCAGGGGUCUAAAACGACCUGAAUAUUUCAGAUCAAA
RNA 2: GGGAAUGGAUCCACAUCUACGAAUUCGUUUUUGAUCUGGAAUAUACAGGUCUGCAGAUCGGAAGAGCACACGU
B9: target 3 A12G,U22G (mixed)
RNA 1: CACCCGUGCAAAAUUGCAGGGGUCUAAAACGACCUGAAUAUUUCAGAUCAAA
RNA 2: GGGAAUGGAUCCACAUCUACGAAUUCGUUGUUGAUCUGAGAUAUUCAGGUCUGCAGAUCGGAAGAGCACACGU
B10: target 3 insA 3' of 2,insA 3' of 1 (mixed)
RNA 1: CACCCGUGCAAAAUUGCAGGGGUCUAAAACGACCUGAAUAUUUCAGAUCAAA
RNA 2: GGGAAUGGAUCCACAUCUACGAAUUCGUUUUUGAUCUGAAAUAUUCAGGUACAUGCAGAUCGGAAGAGCACACGU
B11: target 3 A5G,C6U (mixed)
RNA 1: CACCCGUGCAAAAUUGCAGGGGUCUAAAACGACCUGAAUAUUUCAGAUCAAA
RNA 2: GGGAAUGGAUCCACAUCUACGAAUUCGUUUUUGAUCUGAAAUAUUUGGGUCUGCAGAUCGGAAGAGCACACGU
B12: target 3 insC 3' of 3,insG 3' of 2 (mixed)
RNA 1: CACCCGUGCAAAAUUGCAGGGGUCUAAAACGACCUGAAUAUUUCAGAUCAAA
RNA 2: GGGAAUGGAUCCACAUCUACGAAUUCGUUUUUGAUCUGAAAUAUUCAGGCUGCUGCAGAUCGGAAGAGCACACGU
B13: target 3 insG 3' of 8,insC 3' of 8 (mixed)
RNA 1: CACCCGUGCAAAAUUGCAGGGGUCUAAAACGACCUGAAUAUUUCAGAUCAAA
RNA 2: GGGAAUGGAUCCACAUCUACGAAUUCGUUUUUGAUCUGAAAUAUGCUCAGGUCUGCAGAUCGGAAGAGCACACGU
B14: target 3 insC 3' of 5,insG 3' of 2 (mixed)
RNA 1: CACCCGUGCAAAAUUGCAGGGGUCUAAAACGACCUGAAUAUUUCAGAUCAAA
RNA 2: GGGAAUGGAUCCACAUCUACGAAUUCGUUUUUGAUCUGAAAUAUUCACGGUGCUGCAGAUCGGAAGAGCACACGU
B15: target 3 insA 3' of 6,insU 3' of 5 (mixed)
RNA 1: CACCCGUGCAAAAUUGCAGGGGUCUAAAACGACCUGAAUAUUUCAGAUCAAA
RNA 2: GGGAAUGGAUCCACAUCUACGAAUUCGUUUUUGAUCUGAAAUAUUCAAUGGUCUGCAGAUCGGAAGAGCACACGU
B16: target 3 insC 3' of 3,insA 3' of 3 (mixed)
RNA 1: CACCCGUGCAAAAUUGCAGGGGUCUAAAACGACCUGAAUAUUUCAGAUCAAA
RNA 2: GGGAAUGGAUCCACAUCUACGAAUUCGUUUUUGAUCUGAAAUAUUCAGGCAUCUGCAGAUCGGAAGAGCACACGU
B17: target 3 insA 3' of 22,insA 3' of 7 (mixed)
RNA 1: CACCCGUGCAAAAUUGCAGGGGUCUAAAACGACCUGAAUAUUUCAGAUCAAA
RNA 2: GGGAAUGGAUCCACAUCUACGAAUUCGUUUAUUGAUCUGAAAUAUUACAGGUCUGCAGAUCGGAAGAGCACACGU
B18: target 3 insC 3' of 22,insC 3' of 3 (mixed)
RNA 1: CACCCGUGCAAAAUUGCAGGGGUCUAAAACGACCUGAAUAUUUCAGAUCAAA
RNA 2: GGGAAUGGAUCCACAUCUACGAAUUCGUUUCUUGAUCUGAAAUAUUCAGGCUCUGCAGAUCGGAAGAGCACACGU
B19: target 3 G3A,C6A (mixed)
RNA 1: CACCCGUGCAAAAUUGCAGGGGUCUAAAACGACCUGAAUAUUUCAGAUCAAA
RNA 2: GGGAAUGGAUCCACAUCUACGAAUUCGUUUUUGAUCUGAAAUAUUAAGAUCUGCAGAUCGGAAGAGCACACGU
B20: target 3 U2C,A5U (mixed)
RNA 1: CACCCGUGCAAAAUUGCAGGGGUCUAAAACGACCUGAAUAUUUCAGAUCAAA
RNA 2: GGGAAUGGAUCCACAUCUACGAAUUCGUUUUUGAUCUGAAAUAUUCUGGCCUGCAGAUCGGAAGAGCACACGU
B21: target 3 C6U,U10C (mixed)
RNA 1: CACCCGUGCAAAAUUGCAGGGGUCUAAAACGACCUGAAUAUUUCAGAUCAAA
RNA 2: GGGAAUGGAUCCACAUCUACGAAUUCGUUUUUGAUCUGAAACAUUUAGGUCUGCAGAUCGGAAGAGCACACGU
B22: target 3 insA 3' of 14,insU 3' of 3 (mixed)
RNA 1: CACCCGUGCAAAAUUGCAGGGGUCUAAAACGACCUGAAUAUUUCAGAUCAAA
RNA 2: GGGAAUGGAUCCACAUCUACGAAUUCGUUUUUGAUCUGAAAAUAUUCAGGUUCUGCAGAUCGGAAGAGCACACGU
B23: target 3 insG 3' of 8,insC 3' of 3 (mixed)
RNA 1: CACCCGUGCAAAAUUGCAGGGGUCUAAAACGACCUGAAUAUUUCAGAUCAAA
RNA 2: GGGAAUGGAUCCACAUCUACGAAUUCGUUUUUGAUCUGAAAUAUGUCAGGCUCUGCAGAUCGGAAGAGCACACGU
B24: target 3 insU 3' of 5,insA 3' of 3 (mixed)
RNA 1: CACCCGUGCAAAAUUGCAGGGGUCUAAAACGACCUGAAUAUUUCAGAUCAAA
RNA 2: GGGAAUGGAUCCACAUCUACGAAUUCGUUUUUGAUCUGAAAUAUUCAUGGAUCUGCAGAUCGGAAGAGCACACGU
B25: target 3 A5G,A18G (mixed)
RNA 1: CACCCGUGCAAAAUUGCAGGGGUCUAAAACGACCUGAAUAUUUCAGAUCAAA
RNA 2: GGGAAUGGAUCCACAUCUACGAAUUCGUUUUUGGUCUGAAAUAUUCGGGUCUGCAGAUCGGAAGAGCACACGU
B26: target 1 A9C,U11G (mixed)
RNA 1: CACCCGUGCAAAAAUGCAGGGGUCUAAAACUGAGCGGAUAACCUCUCUAUGG
RNA 2: GGGAAUGGAUCCACAUCUACGAAUUCGUACCAUAGAGAGGGUCUCCGCUCACCGAGAUCGGAAGAGCACACGU
B27: target 1 U3G,C6U (mixed)
RNA 1: CACCCGUGCAAAAAUGCAGGGGUCUAAAACUGAGCGGAUAACCUCUCUAUGG
RNA 2: GGGAAUGGAUCCACAUCUACGAAUUCGUACCAUAGAGAGGUUAUCUGCGCACCGAGAUCGGAAGAGCACACGU
B28: target 1 insG 3' of 19,insU 3' of 13 (mixed)
RNA 1: CACCCGUGCAAAAAUGCAGGGGUCUAAAACUGAGCGGAUAACCUCUCUAUGG
RNA 2: GGGAAUGGAUCCACAUCUACGAAUUCGUACCAUGAGAGAGUGUUAUCCGCUCACCGAGAUCGGAAGAGCACACGU

These binders were tested against T1, EsCas13d, nuclease-dead (assay: crRNA (strand 1, pre-loaded); Mg2+; 40 mM Tris-HCl pH 7.5, 150 mM NaCl, 6 mM MgCl2, 1 mM DTT, 0.1% Tween-20, 0.2 mg/ml BSA; 25 C; 10 min per concentration, then washed). Details: tags: His6-TwinStrep-SUMO cleaved; N-terminal SNAP kept (SNAP-Surface 488); label: 3' end held by stalled T7 RNA polymerase.

**Q.** With B1 as the binder, how does the Kd read?
**A.** 97 ± 34 nM

**Q.** Which Kd does the source give for B2 here?
**A.** ~96 nM

**Q.** How did the Kd turn out when B3 was run?
**A.** 58 ± 9 nM

**Q.** For B4, which Kd is on record?
**A.** 76 ± 21.5 nM

**Q.** Which Kd does the source give for B5 here?
**A.** 69.5 ± 16.5 nM

**Q.** B6 was tested. Which Kd did it give?
**A.** 38.4 ± 4.75 nM

**Q.** With B7 as the binder, how does the Kd read?
**A.** 25.4 ± 2.4 nM

**Q.** How did the Kd turn out when B8 was run?
**A.** 100 ± 50 nM

**Q.** For B9, which Kd is on record?
**A.** 86 ± 20 nM

**Q.** For B10, which Kd is on record?
**A.** 34.3 ± 4.25 nM

**Q.** How did the Kd turn out when B11 was run?
**A.** 11.5 ± 1.3 nM

**Q.** B12 was tested. Which Kd did it give?
**A.** 10.6 ± 1.25 nM

**Q.** With B13 as the binder, how does the Kd read?
**A.** 58 ± 8.5 nM

**Q.** Which Kd does the source give for B14 here?
**A.** 29 ± 2.8 nM

**Q.** With B15 as the binder, how does the Kd read?
**A.** 4 ± 0.27 nM

**Q.** With B16 as the binder, how does the Kd read?
**A.** 9.35 ± 1.15 nM

**Q.** How did the Kd turn out when B17 was run?
**A.** 65 ± 21.5 nM

**Q.** With B18 as the binder, how does the Kd read?
**A.** 33 ± 4.5 nM

**Q.** For B19, which Kd is on record?
**A.** 51.5 ± 5.5 nM

**Q.** With B20 as the binder, how does the Kd read?
**A.** 36.4 ± 3.4 nM

**Q.** How did the Kd turn out when B21 was run?
**A.** 88 ± 11.5 nM

**Q.** With B22 as the binder, how does the Kd read?
**A.** 90.5 ± 40.5 nM

**Q.** With B23 as the binder, how does the Kd read?
**A.** 38.8 ± 5.05 nM

**Q.** How did the Kd turn out when B24 was run?
**A.** 6.39 ± 0.52 nM

**Q.** B25 was tested. Which Kd did it give?
**A.** 30.6 ± 4.5 nM

**Q.** For B26, which Kd is on record?
**A.** 44 ± 6 nM

**Q.** B27 was tested. Which Kd did it give?
**A.** 4.79 ± 0.35 nM

**Q.** How did the Kd turn out when B28 was run?
**A.** 51 ± 20 nM

Source: PMC10786891, “Massively parallel profiling of RNA-targeting CRISPR-Cas13d”
